{"source": "paper PMC7563377", "biological_target": "PSMA (prostate-specific membrane antigen) (UniProt Q04609)", "sequence (Q04609 44-750)": "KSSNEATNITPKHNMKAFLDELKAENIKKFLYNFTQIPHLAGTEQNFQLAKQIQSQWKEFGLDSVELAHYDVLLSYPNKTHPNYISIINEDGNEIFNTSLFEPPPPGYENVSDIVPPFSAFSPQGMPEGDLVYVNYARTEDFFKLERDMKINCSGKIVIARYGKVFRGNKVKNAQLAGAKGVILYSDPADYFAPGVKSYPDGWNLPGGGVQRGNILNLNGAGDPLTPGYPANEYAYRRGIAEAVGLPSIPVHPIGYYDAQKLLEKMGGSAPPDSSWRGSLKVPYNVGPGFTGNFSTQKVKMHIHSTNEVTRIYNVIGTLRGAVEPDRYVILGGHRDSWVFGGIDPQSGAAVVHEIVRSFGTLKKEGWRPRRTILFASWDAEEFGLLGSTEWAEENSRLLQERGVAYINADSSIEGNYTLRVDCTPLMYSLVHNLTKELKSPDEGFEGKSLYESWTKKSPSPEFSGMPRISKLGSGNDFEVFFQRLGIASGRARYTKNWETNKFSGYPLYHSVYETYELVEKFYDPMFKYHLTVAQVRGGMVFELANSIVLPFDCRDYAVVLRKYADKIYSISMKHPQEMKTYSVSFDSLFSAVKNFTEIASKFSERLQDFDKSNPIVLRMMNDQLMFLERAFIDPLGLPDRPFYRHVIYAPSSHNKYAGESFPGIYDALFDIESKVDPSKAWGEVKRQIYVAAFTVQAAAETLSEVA", "assay": "SPR", "details": "2'-fluoro modified ('2F-modified', positions not stated); 3' spacer-NH2 coupled to DSPE-PEG-NHS nanoparticle; OpenSPR, carboxyl chip with amine coupling, running buffer PBS pH 7.4, 20 uL/min; temperature not stated"}
{"sequence": "GGGAGGACGAUGCGGAUCAGCCAUGUUUACGUCACUCCU", "values": [{"measurement": "Kd", "value": 602, "unit": "nM"}]}
